pKd: −log10 of the molar value.
Molecular target: Aβ42 fibrils (fibrillar Aβ(M1-42))
Assay: SPR

pKd: 7.40
Substance: Brichos domain from proSP-C (lung surfactant C precursor protein) (domain or fragment)

Reference: paper PMC4595974
